Four compounds from US20230149507A1, “TREATMENT OF ALT CANCERS” (INSTITUTO DE MEDICINA MOLECULAR JOÃO LOBO ANTUNES, priority 2019, published 2023) can be followed below.

For data set [1], the system named is HeLa cells. In words: FACS cell cycle analysis of FANCM-depleted HeLa cells with added agents. In kind it is cell-based, human. As to conditions: HeLa cells depleted for FANCM; 20 μM BIBR 1532 for 7 days.
Experimental: When indicated, cells were incubated with 1 μM camptothecin (Sigma-Aldrich) for 3 hours, 0.2 mM hydroxyurea (Sigma-Aldrich) for 16 h, 20 μM BIBR 1532 (Merck Millipore) for 7 days, and 10 μM RO-3306 (Selleckchem) for 18 h. […] For fluorescence-activated cell sorting, cells were trypsinized and pelleted by centrifugation at 500 g at 4° C. for 5 min. Cell pellets were either left untreated for viability assays or fixed in 70% ethanol at −20° C. for 30 min and treated with 25 μg/ml RNaseA (Sigma-Aldrich) in 1×PBS at 37° C. for 20 min. Cells were then washed in 1×PBS and stained with 20 μg/ml propidium iodide (Sigma-Aldrich) in 1×PBS at 4° C. for 10 min. Flow cytometry was performed on a BD FACSCalibur or a BD Accuri C6 (BD Biosciences). Data were analyzed using FlowJo software.
Data set [2] addresses T1, FANCM-BTR complex (Homo sapiens, UniProt Q96E14+Q9H9A7).
T1 construct: expressed in transfected cells; host or cells: HEK-293
T1 sequence (Q9H9A7 1-625): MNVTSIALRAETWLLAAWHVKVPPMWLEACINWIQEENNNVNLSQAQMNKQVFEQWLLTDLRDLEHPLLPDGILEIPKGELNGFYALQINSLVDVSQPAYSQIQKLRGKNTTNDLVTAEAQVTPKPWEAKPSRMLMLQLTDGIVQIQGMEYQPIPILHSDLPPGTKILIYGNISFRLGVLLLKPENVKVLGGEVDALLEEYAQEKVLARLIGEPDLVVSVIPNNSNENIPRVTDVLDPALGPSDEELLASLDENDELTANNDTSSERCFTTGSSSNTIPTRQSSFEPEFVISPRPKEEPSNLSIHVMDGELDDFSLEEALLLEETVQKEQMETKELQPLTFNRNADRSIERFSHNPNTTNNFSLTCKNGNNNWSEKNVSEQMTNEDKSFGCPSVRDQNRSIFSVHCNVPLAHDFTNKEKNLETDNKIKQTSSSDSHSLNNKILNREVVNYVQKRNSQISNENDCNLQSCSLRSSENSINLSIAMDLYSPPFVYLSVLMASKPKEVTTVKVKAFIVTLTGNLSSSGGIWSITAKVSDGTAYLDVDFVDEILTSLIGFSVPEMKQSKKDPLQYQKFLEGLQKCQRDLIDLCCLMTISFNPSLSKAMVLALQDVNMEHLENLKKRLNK
T1 sequence (Q96E14 2-147 limits assumed): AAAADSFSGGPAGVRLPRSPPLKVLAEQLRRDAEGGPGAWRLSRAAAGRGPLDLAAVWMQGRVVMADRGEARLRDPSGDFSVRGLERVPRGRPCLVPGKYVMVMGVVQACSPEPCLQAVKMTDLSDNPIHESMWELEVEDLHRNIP
T1 sequence (Q13472 1-1001 partner): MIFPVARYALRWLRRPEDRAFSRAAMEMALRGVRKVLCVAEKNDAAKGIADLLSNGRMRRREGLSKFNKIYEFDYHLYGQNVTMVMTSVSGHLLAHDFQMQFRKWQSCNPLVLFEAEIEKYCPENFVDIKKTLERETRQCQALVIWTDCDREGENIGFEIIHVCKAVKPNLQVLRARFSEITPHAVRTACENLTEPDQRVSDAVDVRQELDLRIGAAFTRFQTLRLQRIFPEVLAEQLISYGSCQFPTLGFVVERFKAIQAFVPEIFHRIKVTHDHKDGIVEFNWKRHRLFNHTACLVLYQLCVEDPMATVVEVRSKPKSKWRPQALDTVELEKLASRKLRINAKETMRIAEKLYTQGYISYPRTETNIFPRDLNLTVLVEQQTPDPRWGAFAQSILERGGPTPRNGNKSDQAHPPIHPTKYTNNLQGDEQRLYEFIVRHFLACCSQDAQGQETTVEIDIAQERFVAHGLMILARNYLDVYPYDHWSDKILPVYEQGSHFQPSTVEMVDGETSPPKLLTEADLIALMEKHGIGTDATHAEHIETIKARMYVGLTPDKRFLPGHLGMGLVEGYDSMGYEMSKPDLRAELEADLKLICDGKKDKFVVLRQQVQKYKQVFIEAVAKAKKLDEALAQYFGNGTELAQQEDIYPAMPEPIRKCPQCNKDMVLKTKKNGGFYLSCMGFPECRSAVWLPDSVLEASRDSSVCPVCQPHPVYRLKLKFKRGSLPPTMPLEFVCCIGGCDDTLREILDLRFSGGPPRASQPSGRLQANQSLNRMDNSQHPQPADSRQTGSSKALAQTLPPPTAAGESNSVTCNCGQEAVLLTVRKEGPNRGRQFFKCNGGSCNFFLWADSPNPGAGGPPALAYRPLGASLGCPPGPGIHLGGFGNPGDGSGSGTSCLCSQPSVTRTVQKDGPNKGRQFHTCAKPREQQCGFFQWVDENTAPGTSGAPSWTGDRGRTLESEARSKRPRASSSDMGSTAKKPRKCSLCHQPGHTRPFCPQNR
In words: Flag-FANCM immunoprecipitation of the FANCM-BTR complex with MM2 peptides added to cellular lysates. It counts as binding. The note with it: peptide 1-50 μM, lysates of HEK-293 cells expressing Flag-FANCM. From the text:
FIG. 10. Characterization of the MM2-ER fusion protein. (a) Schematic showing competitive inhibition of FANCM-BTR complex formation by the MM2 peptide. […] (c) Representative mitotic spreads showing sister-chromatid exchanges (SCEs) in U-2 OS cells expressing MM2-ER or FF>AA-ER mutant fusion proteins in the presence or absence of 40HT (left panel). Quantitation of SCEs (right panel). (d) Representative mitotic spreads showing sister-chromatid exchanges (SCEs) in HeLa cells expressing MM2-ER or FF>AA-ER mutant fusion proteins in the presence or absence of 40HT (left panel). Quantitation of SCEs (right panel). SCEs are indicated by black arrows. For c and d, scatterplot bars represent the mean±SEM number of SCEs from 15-30 mitotic spreads, *p<0.05, **p<0.005, Mann-Whitney test. NB: The frequency of double labelled mitoses in MM2-ER+4OHT samples was approximately 10% of that in the controls, likely due to significant cell cycle delays introduced by activation of the MM2-inhibitor. As thus, SCE levels are likely underestimated in this experiment.
For co-IP experiments involved the ER-inducible system, cells were lysed in IP buffer (20 mM Tris-HCl pH 7.5, 100 mM NaCl, 10% (v/v) glycerol, 0.5 mM EDTA, 1 mM DTT) supplemented with 1× mammalian protease inhibitor cocktail (Sigma Aldrich) and 50 U/ml Benzonase (Novagen) for 2 h at 4° C., with or without MM2 peptide variants (Mimotopes). Following lysis, NaCl concentration was increased to 250 mM, then the lysate cleared at 16,000×g for 15 mins. Supernatant was then mixed with 1 μg of α-FANCM (Abcam) or α-ER (Santa Cruz Biotechnology) and 20 μl protein G sepharose (GE Healthcare), or using α-Flag M2 agarose (Sigma Aldrich). Following 3 h of mixing at 4° C., beads were washed 4× with IP buffer, and 1× with 50 mM NH4(CO3)2, 0.5 mM EDTA, then eluted with 500 mM NH4OH (pH 11.0), 0.5 mM EDTA. Samples were then lyophilized and resuspended in 1×LDS loading buffer (Life Technologies) prior to immunoblotting.

Data set [3] deals with U-2 OS ALT cells. In words: Metaphase-TIFs after FANCM knockdown with siRNA. In kind it is cell-based, human. As to conditions: compared to the scrambled control; siRNA 30 nM, 72 h. The text has this:
(a) Representative images of telomere (green) and γ-H2AX (red) colocalizations on metaphase spreads (meta-TIFs) in U-2 OS cells with or without FANCM depletion (left panel). Meta-TIFs are indicated by white arrows. Scale bars are 5 μm. Quantitation of TIFs (right panel). Scatterplot bars represent the mean±SEM. Out of 3 experiments, n≥81 metaphases scored per treatment, **p<0.005, Mann-Whitney test. (b) Native and denatured TRF analysis of U-2 OS cells with or without FANCM depletion. Colored arrows correspond to telomeric DNA species depicted in panel c. (c) Schematic of migration patterns for indicated telomeric species separated by two-dimensional gel electrophoresis (top panel). Two-dimensional TRF analysis of U-2 OS cells with or without FANCM depletion, hybridized under native and denatured conditions to detect the telomeric C-strand and G-strand (left and right panels). Colored arrows correspond to telomeric DNA species depicted in schematic. (d) Representative dot blot and quantitation of C-circle assays of U-2 OS cells with or without FANCM depletion. C-circle levels were normalized to the mean of scrambled control. Error bars represent the mean±SEM from n=3 experiments, *p<0.05, **p<0.005, Student's t-test. […] Out of 3 experiments, n≥150 cells scored per treatment, *p<0.05, **p<0.005, Mann-Whitney test. […]

In the case of `C/C(=C\C(=O)Nc1ccccc1C(=O)O)c1ccc2ccccc2c1` [BIBR 1532], the “accumulation in G2/M” value in data set [1] is given as “did not accumulated in G2/M”.

As for “MM2 peptide containing the FF>AA mutant: MM2 peptide containing the FF>AA mutant (SEQ ID NO: 30) that does not bind to BTR (EDIFDCSRDLFSVTADLGACSPDSDDEILEHTSD; mutated FANCM peptide) [reference compound]”, the “FANCM-BTR complex formation (TOP3A binding)” value in data set [2] was “unable to inhibit complex formation”.

As to “MM2 peptide: chemically synthesized peptide (SEQ ID NO: 29) corresponding to the highly conserved 28 amino acids of the MM2 domain (EDIFDCSRDLFSVTFDLGFCSPDSDDEILEHTSD; wildtype FANCM MM2 peptide)”, the “FANCM-BTR complex formation (TOP3A binding)” value in data set [2] was “dose-dependent inhibition of FANCM-BTR complex formation”; in data set [2] (listed as MM2-WT) it was “diminishes with increasing concentrations”.

With “siFANCM1: Silencer Select siRNA FANCM1 (s33619) (SEQ ID NO: 12) (GCUCGUUCUUUGAUUCAGA; listed as RNA, chemistry not given here)”, the “metaphase-TIFs (meta-TIFs)” value in data set [3] is “significant increase in metaphase-TIFs”.
